In patent publication US8563503B2, “Antibiotic, its nucleotide sequence, methods of construction and uses thereof” (Protein Design Lab. Ltd., priority 2011, dated 2013):

Legend:
[1] = tested on: methicillin-resistant Staphylococcus aureus ATCC BAA-42; test: Bacteria growth curve (A595 nm), comparison of the novel antibiotics; format: cell-based; conditions: drug 5 μg/ml, 37° C., A595 nm per hour
Procedure, shortened: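 MRSA ATCC BAA-42 (10^6 CFU/ml inoculum level) grown in peptone/NaCl/yeast extract/glucose/K2HPO4 broth at 37 °C, 200 rpm, with each polypeptide at 5 μg/ml; buffer (0.3 M NaCl + 50 mM boric acid) and penicillin G 5 μg/ml as controls. Turbidity (A595 nm) sampled hourly for growth curves.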

[2] = tested on: Staphylococcus epidermidis reference culture No. 26069; test: Bacteria growth curve (A595 nm cloudiness), Staphylococcus epidermidis; format: cell-based; conditions: drug 2 μg/ml, 37° C., A595 nm per hour
Procedure: The bacterium is Staphylococcus epidermidis reference culture No. 26069, purchased from China Center of Culture Collection (National Institute for the Control of Pharmaceutical and Biological Products). 3 microliter of bacterium solution (10^6 CFU/ml level bacterium amount) was added into 10 ml culture solution containing 1% peptone, 1% NaCl, 0.5% yeast extract, 0.5% glucose and 0.1% K2HPO4. Totally four groups were prepared. The first group as control was added 0.3M NaCl+50 mM boric acid buffer fluid by the same volume with that of antibiosis polypeptide liquid added in any experimental groups, the second group was added penicillin G sodium by 2 μg/ml, PMC-SA1 and PMC-SE was added in the other experimental groups by 2 μg/ml (0.3 M NaCl+50 mM boric acid buffer fluid was preservative fluid).
The solution of above groups was put into 100 ml conical flask, 200 rpm, grew at 37° C. 100 μl was sampled per hour, and added onto 96-pore ELISA plate to measure bacteria grown cloudiness by spectrophotometer (A595 nm) color comparison. The bacteria growth curve was drawn up to compare the bacteriostasis efficacy of the novel antibiotics.

[3] = tested on: E. coli; test: MIC by Agar Doubling Dilution Method, clinical isolates; format: cell-based; conditions: E. coli clinical strains
Procedure, shortened: (§1)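 For Enterococcus, medium was MH supplemented with 5-10% defibrinated rabbit blood and incubation used 5% CO2 at 37° C. All strains are spotted at 10^5 CFU/ml onto agar carrying twofold drug dilutions and read after 18-24 h for absence of growth.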

[4] = tested on: Staphylococcus epidermidis (MSSE strain); test: as above; format: cell-based; conditions: MSSE clinical strains
Procedure, shortened: as §1

[5] = tested on: Staphylococcus epidermidis (MRSE); test: as above; format: cell-based; conditions: MRSE clinical strains
Procedure, shortened: as §1

[6] = tested on: Staphylococcus aureus ATCC 29213; test: Protection test in vivo (intravenous injection) of infected mice; set-up: species or system Kungming mice; conditions: mice, infected with 4.6 × 10^5 cfu/ml i.p., drug once intravenous
Procedure, shortened: (§2)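 Mice got a lethal intraperitoneal bacterial challenge, then one intravenous dose of drug in sterile water at 10, 5 or 2.5 mg/kg. Survival was checked every 24 h for 7–14 days, with death counted as the positive result.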

[7] = tested on: Enterococcus ATCC 700802; test: as above; set-up: species or system Kungming mice; conditions: mice, infected with 7.0 × 10^6 cfu/ml i.p., drug once intravenous
Procedure, shortened: as §2

[8] = tested on: Staphylococcus aureus MRSA BAA-42; test: as above; set-up: species or system Kungming mice
Procedure, shortened: as §2

[9] = tested on: E. coli 02-1-65; test: as above; set-up: species or system Kungming mice; conditions: mice, infected with 3.8 × 10^5 cfu/ml i.p., drug once intravenous
Procedure, shortened: as §2

B1: PMC-SA1: Staphylococcus aureus pheromone AgrD I linked to C-terminus of allosteric colicin Ia′; SEQ ID NO. 13; plasmid pBHC-SA1 (protein)
chain: SDPVRITNPAAESLGYDSDGREIMGVDIYLNPPRVDVFKGTPPAWSSFGNKTIWGGNEWVDDSPTRSDIEKRDKEITAYKNTLSAQQKENENKRTEAGKRLSAAIAAREKDENTLKTLRAGNADAADITRQEFRLLQAELREYGFRTEIAGYDALRLHTESRMLFADADSLRISPREARSLIEQAEKRQKDAQNADKKAADMLAEYERRKGILDTRLSELEKNGGAALAVLDAQQARLLGQQTRNDRAISEARNKLSSVTESLNTARNALTRAEQQLTQQKNTPDGKTIVSPEKFPGRSSTNHSIVVSGDPRFAGTIKITTSAVIDNRANLNYLLSHSGLDYKRNILNDRNPVVTEDVEGDKKIYNAEVAEWDKLRQRLLDARNKITSAESAVNSARNNLSARTNEQKHANDALNALLKEKENIRNQLSGINQKIAEEKRKQDELKATKDAINFTTEFLKSVSEKYGAKAEQLAREMAGQAKGKKIRNVEEALKTYEKYRADINKKINAKDRAAIAAALESVKLSDISSNLNRFSRGLGYAGKFTSLADWITEFGKAVRTENWRPLFVKTETIIAGNAATALVALVFSILTGSALGIIGYGLLMAVTGALIDESLVEKANKFWGIYSTCDFIM
modifications: The peptide of PMC-SA1
notes: Staphylococcus aureus pheromone AgrD I linked to C-terminus of allosteric colicin Ia′; 13; plasmid pBHC-SA1
bacteriostasis effect on growth of methicillin-resistant Staphylococcus aureus (bacteria growth curve) [1]: the best
growth of Staphylococcus epidermidis (bacteria growth curve) [2]: partly restrained
MIC50 [3]: 16 µg/mL
MIC90 [3]: >32 µg/mL
MIC50 [4]: 1 µg/mL
MIC90 [4]: 32 µg/mL
Scope of MIC [4]: 0.25 to 64 µg/mL
MIC50 [5]: >64 µg/mL
MIC90 [5]: >64 µg/mL
ED50 [6]: 10.35 mg/kg
ED50 [7]: 18.2 mg/kg
ED50 ([8]; mice, infected with 6.5 × 10^5 cfu/ml i.p., drug once intravenous): 4.12 mg/kg
treatment effects on methicillin-resistant Staphylococcus aureus infection in vivo compared with vancomycin ([8]; survival rate of mice, three dosage groups): far better treatment effects
ED50 [9]: 3.78 mg/kg
